Data from paper PMC11053944, “FRET Assays for the Identification of C. albicans HSP90-Sba1 and Human HSP90α-p23 Binding Inhibitors” (Pharmaceuticals, 2024).

What was measured:
[1] = biological target: C. albicans HSP90 (without fluorescent protein) (C. albicans) (UniProt P46598)
[2] = biological target: C. albicans HSP90 (without fluorescent protein) (C. albicans) (UniProt P46598); remark: listed apart in the source

C. albicans Aha1 (from UniProt A0A1D8PU72 1-346) (natural protein)
HSP90 ATPase activity (ADP-Glo), 2.5 µM HSP90 with 1-20 µM Aha1, 1 mM ATP, 1 h at 30 °C; fold of HSP90 alone [1]: 7 fold
HSP90 ATPase activity (ADP-Glo), 2.5 µM HSP90 with Aha1 (20 µM) and Sba1 (20 µM) together, 1 mM ATP; fold of HSP90 alone [2]: 1.9 fold
